This is an account of results in publication doi:10.1101/2021.02.18.431786 (bioRxiv, 2021).

The target of assay [1] is Human ABCG2 (breast cancer resistance protein), wild type, N-terminal Flag tag, reconstituted in nanodiscs (human, UniProt Q9UNQ0). Put plainly: cryo-EM structure.
For assay [2], the target named is T1, Human ABCG2 (breast cancer resistance protein), wild type, N-terminal Flag tag, reconstituted in nanodiscs (human), Q9UNQ0.
T1 chain: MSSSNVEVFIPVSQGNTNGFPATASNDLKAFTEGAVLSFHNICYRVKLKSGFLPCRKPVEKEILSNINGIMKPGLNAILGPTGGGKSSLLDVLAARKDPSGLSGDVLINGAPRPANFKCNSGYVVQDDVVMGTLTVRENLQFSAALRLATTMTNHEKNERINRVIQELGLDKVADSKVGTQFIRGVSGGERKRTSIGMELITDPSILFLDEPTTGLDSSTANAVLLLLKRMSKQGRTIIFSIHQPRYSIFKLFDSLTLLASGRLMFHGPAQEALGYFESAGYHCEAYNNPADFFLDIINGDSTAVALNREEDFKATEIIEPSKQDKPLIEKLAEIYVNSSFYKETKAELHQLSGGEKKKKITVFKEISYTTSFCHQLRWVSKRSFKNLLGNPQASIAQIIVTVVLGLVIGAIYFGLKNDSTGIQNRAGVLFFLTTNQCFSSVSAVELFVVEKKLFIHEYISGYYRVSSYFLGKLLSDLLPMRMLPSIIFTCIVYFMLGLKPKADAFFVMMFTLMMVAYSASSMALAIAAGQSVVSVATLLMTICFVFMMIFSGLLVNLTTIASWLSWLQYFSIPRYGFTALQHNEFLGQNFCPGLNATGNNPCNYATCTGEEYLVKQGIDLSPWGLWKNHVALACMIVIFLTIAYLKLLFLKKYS
Briefly: cryo-EM structure. The conditions noted are these: remark: other sources report otherwise.

B1: Fab fragment of the ABCG2-specific monoclonal antibody 5D3 (Fab, V domains shown)
VH: QVQLQESGPGLVKPSQSLSLTCTVTGFSITSDYAWNWIRQFPGKKLEWMGYINFDGGTTYNPSLRGRISITRDTSKNQFFLQLRSVTPEDTATYYCATFYGAKGTLDYWGQGTSVTVSS
VL: DIVLTQSPSSFSVSLGDRVTISCKASGYILNRLAWYQQKPGNAPRLLISGATSLETGFPSRFSGTGSGKDYTLSISSLQTEDVGTYYCQQYWSTPWTFGGGTKLEIR
Consider B1, for which, in assay [1], the binding result is “binds”.

B2: Human ABCG2 (breast cancer resistance protein), wild type, N-terminal Flag tag, reconstituted in nanodiscs, Q9UNQ0 1-655 (natural protein)
chain: MSSSNVEVFIPVSQGNTNGFPATASNDLKAFTEGAVLSFHNICYRVKLKSGFLPCRKPVEKEILSNINGIMKPGLNAILGPTGGGKSSLLDVLAARKDPSGLSGDVLINGAPRPANFKCNSGYVVQDDVVMGTLTVRENLQFSAALRLATTMTNHEKNERINRVIQELGLDKVADSKVGTQFIRGVSGGERKRTSIGMELITDPSILFLDEPTTGLDSSTANAVLLLLKRMSKQGRTIIFSIHQPRYSIFKLFDSLTLLASGRLMFHGPAQEALGYFESAGYHCEAYNNPADFFLDIINGDSTAVALNREEDFKATEIIEPSKQDKPLIEKLAEIYVNSSFYKETKAELHQLSGGEKKKKITVFKEISYTTSFCHQLRWVSKRSFKNLLGNPQASIAQIIVTVVLGLVIGAIYFGLKNDSTGIQNRAGVLFFLTTNQCFSSVSAVELFVVEKKLFIHEYISGYYRVSSYFLGKLLSDLLPMRMLPSIIFTCIVYFMLGLKPKADAFFVMMFTLMMVAYSASSMALAIAAGQSVVSVATLLMTICFVFMMIFSGLLVNLTTIASWLSWLQYFSIPRYGFTALQHNEFLGQNFCPGLNATGNNPCNYATCTGEEYLVKQGIDLSPWGLWKNHVALACMIVIFLTIAYLKLLFLKKYS
In turn, B2 had a stoichiometry N in assay [2] of 2.

The stoichiometry N is a count of units in the complex or per binding partner.
